Test results published in the nanobody polyreactivity screen of Harvey et al. (2022).

Experiment: yeast display, Sf9 membrane polyspecificity reagent, FACS + sequencing; frameworks hold sequencing errors
In short: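 Sorting gates, low and high (top ~1%), were placed on anti-HA fluorescence to track expression and on streptavidin fluorescence to track reagent binding. A clone's polyreactivity label is taken from the gate it came out of. The reagent was 10% biotinylated, detergent-solubilized Sf9 membrane, applied for 1 hour at 4 °C to galactose-induced yeast display cells.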

Row | Sequence | polyreactivity (PSR sort gate)
1 | QVQLVESGGGLVQAGGSLRLSCAASGFTFWTYAMGWYRPAPGKERELVAAIDSGVSTYYADSVKGRFTISRDNAKNTVYLQMNSLKPEDTAVYYCNAGPSVTSGYDYDYWGQGTQVTVSS | low polyreactivity
2 | QVQLVESGGGLVQAGGSLRLSCAASGFTFWTYAMGWYRQAPGKERELVAAIDSGGSTYYADSVKGRFTISRDNAKNTVYLQMNSLKPEDTAVYYCAKDVLAPYSRHDYWGQGTQVTVSS | low polyreactivity
3 | QVQLVESGGGLVQAGGSLRLSCAASGFTFWTYAMGWYRQAPGKERELVAAIDSGGSTYYADSVKGRFTISRDNAKNTVYLQMNSLKPEDTAVYYCNAGPSVTSGYDYDYWGQGTQVTVSS | low polyreactivity
4 | QVQLVESGGGLVQAGGSLRLSCAASGFTFWTYDMGWYRQAPGKERELVAAISTSGGSTYYADSVKGRFTISRDNAKNTVYLQMNSLKPEDTAVYYCAAYAIGEHFRARYGYWGQGTQVTVSS | high polyreactivity
5 | QVQLVESGGGLVQAGGSLRLSCAASGFTFWWYTMGWYRPAPGKERELVAAITSGGSTYYADSVKGRFTISRDNAKNTVYLQMNSLKPEDTAVYYCNVVPYLYGLDGYDYWGQGTQVTVSS | high polyreactivity
6 | QVQLVESGGGLVQAGGSLRLSCAASGFTFWYYAMGWYRQAPGKERELVAAIDSGVTRTYYADSVKGRFTISRDNAKNTVYLQMNSLKPEDTAVYYCNADFVWRGDYWGQGTQVTVSS | low polyreactivity
7 | QVQLVESGGGLVQAGGSLRLSCAASGFTFWYYAMGWYRQAPGKERELVARITSRGADTYADSVKGRFTISRDNAKNTVYLQKNSLKPEDTAVYYCNAEFGRARDDDYWGQGTQVTVSS | low polyreactivity
8 | QVQLVESGGGLVQAGGSLRLSCAASGFTFYANAMGWYRQAPGKERELVAAIDESGTSTNYADSVKGRFTISRDNAKNTVYLQMNSQKPEDTAVYYCAADGNSTGVYLDGGEGFAYDYWGHGTQVTVSS | low polyreactivity
9 | QVQLVESGGGLVQAGGSLRLSCAASGFTFYDNAMGWYRQAPGKERELVAAISSSGTRTYYADSVKGRFTISRDNAKNTVYLQMNSLKPEDTAVYYCAARGQAYSGDRMYYWGQGTQVTVSS | high polyreactivity
10 | QVQLVESGGGLVQAGGSLRLSCAASGFTFYGNAMGWYRQAPGKERELVASISTYYADSVKGRFTISRDNAKNTVYLQMNSLKPEDTAVYYCAATHYDRTYYVIYDYWGQGTQVTVST | low polyreactivity
11 | QVQLVESGGGLVQAGGSLRLSCAASGFTFYGYAMGWYRQAPGKERELVAAINSAGRTYYADSVKGRFTISRDNAKNTVYLQMNSLKPEDTAVYYCASKYVRGHGYWGQGTQVTVSS | high polyreactivity
12 | QVQLVESGGGLVQAGGSLRLSCAASGFTFYGYAMGWYRQAPGKERELVAAISSRGSRTYYADSVKGRFTISRDNAKNTGYLQMNSLKPEDTAFYYCAVDKAITQGLYDYWGQGTQVTVSS | high polyreactivity
13 | QVQLVESGGGLVQAGGSLRLSCAASGFTFYGYAMGWYRQAPGKERELVAAISSSGGRTYYADSVKGRFTISRDNAKNTVYLQMNSLKPEDTAVYYCAADYTSRDYYYWGQGTQVTVSS | high polyreactivity
14 | QVQLVESGGGLVQAGGSLRLSCAASGFTFYGYAMGWYRQAPGKERELVAAISSSGTSTYYADSVKGRFTISRDNEKNTVYLQMNSLKPEDTAVYYCAKDFYRRYYSWGQGTQVTVSS | high polyreactivity
15 | QVQLVESGGGLVQAGGSLRLSCAASGFTFYHNAMGWYRHAPGKERELVATITARGGRTYYADSVKGRFTISRDNAKNTVYLQMISLKPEDTAVYYCNVKASRGYTYEYDYWGQGTQVTVSS | high polyreactivity
16 | QVQLVESGGGLVQAGGSLRLSCAASGFTFYIYAMGWYRQAPGKERELVAAITTSGDSTYYADSVKGRFTISRDNAKNTVYLQMNSLKPEDTAVYYCAAEYWYTYSWGQGTQVTVLS | low polyreactivity
17 | QVQLVESGGGLVQAGGSLRLSCAASGFTFYKNAMGWYRQAPGKERELVAAISRSGGSTYYADSVKGRFTISRDNAKNTVYLKMNSLKPEDTAVYYWAKGYCNFYRSDYWGQGTHVTVSS | high polyreactivity
18 | QVQLVESGGGLVQAGGSLRLSCAASGFTFYKYAMGWYRQAPGKEREFVASITVRTGSTSYADSVKGRFTISRDNAKNTVYLQMNSLKPEDTAVYYCAAETYYYSWYYLGYTYDYWGHGTQVTVSS | high polyreactivity
19 | QVQLVESGGGLVQAGGSLRLSCAASGFTFYKYTMGWYRQAPGKERELVAAISARGGSTYYADSVKGRFTISRDNAKNTVYLQMNSLKPEDTAVYYCAADYWRTYGLGYDYWGQGTQVTVSS | high polyreactivity
20 | QVQLVESGGGLVQAGGSLRLSCAASGFTFYKYVMGWYRQAPGKERELVAAITTSGGSTYFADSVKGRFTISRDNAKNSVYLEMNSLKPEDTAVYYCNARSLHTSEGDYWGQGSQVTVSS | low polyreactivity
21 | QVQLVESGGGLVQAGGSLRLSCAASGFTFYLNAMGWYRQAPGKERELVAAISYSDGSTYYADSVKGRFTISRDNAKNTVYLQMNRLKPEDTAVYFCAADTTDPGGAYQLMDYWGQGTQVTVSS | high polyreactivity
22 | QVQLVESGGGLVQAGGSLRLSCAASGFTFYLYAMGWYRHAPGKERELVAAISVDGGSTYYADSVKGRFTISRDNAKNTVYLQMNSLKPEDTAVYYCAARLYGRYRYDYWGQGTQVTVSS | low polyreactivity

Row | Sequence | polyreactivity (PSR sort gate)
23 | QVQLVESGGGLVQAGGSLRLSCAASGFTFYLYTMGWYRQAPGKERELVAAISWRGGGTYYADSVKGRFTISRDNAKNTVYLQMNSLKPEDTAVYYCATVRTYARNDYWGQGTQVTVSS | high polyreactivity
24 | QVQLVESGGGLVQAGGSLRLSCAASGFTFYLYTMGWYRQAPGNESELVATITSDGGTNYADSVKGRFTISRDNAKNTVYLQMNSLKPEDTAVYYFNAASRRGSRKQAKYDYWGQGTQVTVSS | low polyreactivity
25 | QVQLVESGGGLVQAGGSLRLSCAASGFTFYPYAMGWYRQAPGKERELVASISSRGGSRTYYADSVKGRFTISRVNEKNTVYLQMNSLKTEDSAVYYCAATYVGLYRGYFTLTYYYWGQGTPVTVSS | high polyreactivity
26 | QVQLVESGGGLVQAGGSLRLSCAASGFTFYPYTMGWYRQAPGKERELVADITYDSTYYADSVKGRFTISRDNAKNTVYLQMNSLKPEDTAVYYCNATGYSVSRSAYWYGWYDYWGQGTQVTVSS | low polyreactivity
27 | QVQLVESGGGLVQAGGSLRLSCAASGFTFYQNAMGWYRQAPGKEREFVAAISRRGGSTYYADSVKGRFTSSRDNAKNTVYLQMNSLKPEDTAVYYCAADYKRKSDGDYWGQGTQVTVSS | high polyreactivity
28 | QVQLVESGGGLVQAGGSLRLSCAASGFTFYQYAMGWYRQAPGKEREFVAAISSSGSSTYYADSVKGRFTISRDNAKNTVYLQMNSLKPEDTAVYYCNAYFRNWRYSPGGYWGQGTQVTVSS | high polyreactivity
29 | QVQLVESGGGLVQAGGSLRLSCAASGFTFYRNAMGWSRQAPGKERELVARIRGTGGRTYYADSVKGRFTISRDNAKNTVYLQMNSLKPEDSAVYYCARRYHYSLYGYWGQGTQVTVSS | high polyreactivity
30 | QVQLVESGGGLVQAGGSLRLSCAASGFTFYRNAMGWYRKAPGKERELVAAISWSGDSTYYADSVKGRFTISRDNAKNTVYLQMNSLKPEDTAVYYCAKSRYTALTNHWSHDYWGQGTQVTVSS | low polyreactivity
31 | QVQLVESGGGLVQAGGSLRLSCAASGFTFYRNAMGWYRQAPGKERELVAGISKRGGSTYYADSVKGRFTISRDNAKNTVYLLMNSLKPEDTAVYYCARGGYPGSAEYDYWGQGTQVTVSS | high polyreactivity
32 | QVQLVESGGGLVQAGGSLRLSCAASGFTFYRNAMGWYRQAPGKERELVARISRGGSTNYADSVKGRFTISRDNAKNTVYLQMNSLKPEDTAVYYCNRDYYVGRYDYWGQGTQVTVSS | high polyreactivity
33 | QVQLVESGGGLVQAGGSLRLSCAASGFTFYRNTMGWYRQAPGKERELVATITFSGTRTYYADSVKGRFTISRDNAKNTVYLQMNSLKPEDTAVYYCAADRPRRTKWGGGGYYWGQGTQVTVSS | high polyreactivity
34 | QVQLVESGGGLVQAGGSLRLSCAASGFTFYRYALGWYRQAPGKERELVAAISQRGGTTYYADSVKGRFTISRDNAKNTVYLQMNSLKPEDTAVYYCAKDRYYYPGNYWGQGTQVTVSS | high polyreactivity
35 | QVQLVESGGGLVQAGGSLRLSCAASGFTFYRYAMGWYRQAPGKERELVAAISRSGGSTSYADSVKGRFTISRDNAKNTLYLQMNSLTPEDTEVYYCATRNWYSLKDYYYWGQGTQVTVSS | high polyreactivity
36 | QVQLVESGGGLVQAGGSLRLSCAASGFTFYRYAMGWYRQAPGKERELVAAITASGGSTYYADSVKGRFTISRDNAKNTVYLQMNSLKPEDTAVYYCAKGWVSYWRYKNEYWGQGTQVTVSS | high polyreactivity
37 | QVQLVESGGGLVQAGGSLRLSCAASGFTFYRYAMGWYRQAPGKERELVAAITSAGSTYYADSVKGRFTISRDNAKNTVYLQMNSLKPEDTAVSYCNAVGYFSYRDRDSEYYYNYGSWGQGTQVTVSS | low polyreactivity
38 | QVQLVESGGGLVQAGGSLRLSCAASGFTFYRYAMGWYRQAPGKERELVASISRNGGSTYYADTVKGRFTISRDTEKNTVYFLMNSLKPEDTAVYYCNTAFYPPTNFYWGQGTQVTVSS | high polyreactivity
39 | QVQLVESGGGLVQAGGSLRLSCAASGFTFYRYAMGWYRQAPGKERELVATISASGGSTYYADSVKGRFTISRDNAKNTVYLQMNSVKPEDTAVYYFAVRYKSWYGFNYWGQGTQVTVSS | high polyreactivity
40 | QVQLVESGGGLVQAGGSLRLSCAASGFTFYRYAMGWYRQAPGKERELVAVITGRGGTTYYADSVKGRFTISRDNAKNTVYLQMNSMKPEDTAVYYCAVQTHRSLDPYDYWGQGTQVTVSS | high polyreactivity
41 | QVQLVESGGGLVQAGGSLRLSCAASGFTFYRYDMGWYRQAPGQERELVAAITNNGGNTYYADSVKGRFTISRDNAKNTVYLQMNSLKPEDTAVYYCAARTWGRYDYWGQGTQVTVSS | high polyreactivity
42 | QVQLVESGGGLVQAGGSLRLSCAASGFTFYRYPMGWYRQAPGKETELVAAITKRGDRTYYADSVKGRFRISRDNAKNTVFLQMSSLKPEDTAVYFCASDPYYSVSYWLAYDYWGQGTQVTVSS | high polyreactivity
43 | QVQLVESGGGLVQAGGSLRLSCAASGFTFYRYTMGWYRQAPGKERELFAAISARGVSTYYADSVKGRFTISRDNAKNTVYLQMNSLKPEDTAVYYCYVSRYDTWGQGTQVTVTS | high polyreactivity
